Assay results from patent US20150038419A1 (US Dept. of Health and Human Services, published 2015).

Columns and labels:
[1] = target: T1, coagulation Factor XIIIa (FXIIIa) (UniProt P00488 39-732, limits assumed); experiment: SPR (Biacore T100), rSimukunin immobilized on CM5
T1 construct: mature
T1 sequence (looked up): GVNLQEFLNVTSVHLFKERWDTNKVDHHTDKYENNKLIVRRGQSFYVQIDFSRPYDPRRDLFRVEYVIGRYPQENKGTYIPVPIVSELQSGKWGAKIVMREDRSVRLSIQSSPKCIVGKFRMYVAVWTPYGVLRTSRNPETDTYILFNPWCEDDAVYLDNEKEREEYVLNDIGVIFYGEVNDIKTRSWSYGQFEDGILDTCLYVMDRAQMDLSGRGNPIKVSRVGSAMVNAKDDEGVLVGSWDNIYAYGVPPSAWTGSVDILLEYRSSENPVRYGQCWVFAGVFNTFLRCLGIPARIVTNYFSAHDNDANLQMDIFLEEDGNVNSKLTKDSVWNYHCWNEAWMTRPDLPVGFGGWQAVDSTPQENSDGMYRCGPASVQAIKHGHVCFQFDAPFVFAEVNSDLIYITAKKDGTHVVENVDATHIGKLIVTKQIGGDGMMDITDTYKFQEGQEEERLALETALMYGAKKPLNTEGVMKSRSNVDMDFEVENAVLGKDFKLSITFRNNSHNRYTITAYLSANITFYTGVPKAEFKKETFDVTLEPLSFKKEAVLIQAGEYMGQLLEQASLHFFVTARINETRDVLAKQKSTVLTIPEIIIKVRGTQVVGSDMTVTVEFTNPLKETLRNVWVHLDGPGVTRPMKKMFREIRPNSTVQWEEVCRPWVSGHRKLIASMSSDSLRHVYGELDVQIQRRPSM

[2] = target: T2, coagulation Factor X (FX), zymogen precursor of FXa (UniProt P00742 41-488); experiment: SPR (Biacore T100), rSimukunin immobilized on CM5
T2 construct: mature; also called zymogenic form of FX

[3] = target: T3, coagulation Factor VIIa (FVIIa), recombinant (UniProt P08709 61-466); experiment: SPR (Biacore T100), rSimukunin immobilized on CM5
T3 construct: mature
T3 sequence (looked up): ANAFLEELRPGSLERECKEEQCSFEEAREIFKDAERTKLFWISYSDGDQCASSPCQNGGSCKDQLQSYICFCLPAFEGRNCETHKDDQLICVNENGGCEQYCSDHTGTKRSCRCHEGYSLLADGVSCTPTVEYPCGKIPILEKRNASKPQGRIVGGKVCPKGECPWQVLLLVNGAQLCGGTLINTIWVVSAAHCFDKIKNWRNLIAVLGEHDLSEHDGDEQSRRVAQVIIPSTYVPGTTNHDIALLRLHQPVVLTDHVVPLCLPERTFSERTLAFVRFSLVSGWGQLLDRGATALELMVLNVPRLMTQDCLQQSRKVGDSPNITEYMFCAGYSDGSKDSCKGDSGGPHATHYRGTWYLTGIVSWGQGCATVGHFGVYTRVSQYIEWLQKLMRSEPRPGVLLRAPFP

chymase (human) = target: T4, chymase (human) (human, UniProt P23946 22-247); experiment: enzyme inhibition assay, fluorogenic peptide substrate, 500 nM rSimukunin, 1.8 nM enzyme
T4 construct: mature
T4 sequence (looked up): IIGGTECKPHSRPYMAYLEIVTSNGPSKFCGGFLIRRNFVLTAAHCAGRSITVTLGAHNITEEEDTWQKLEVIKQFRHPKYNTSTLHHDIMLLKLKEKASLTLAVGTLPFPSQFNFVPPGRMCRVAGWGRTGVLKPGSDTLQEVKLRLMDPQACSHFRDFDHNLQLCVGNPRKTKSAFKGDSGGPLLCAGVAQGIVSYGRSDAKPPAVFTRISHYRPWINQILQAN
Protocol: Serine protease inhibition assays. rSimukunin (500 nM) was first pre-incubated with each enzyme for 10 min before the addition of the corresponding substrate. The amount of enzyme used in the assays was the lowest possible to give a linear substrate hydrolysis rate in the assays (r²>0.95). After incubation for 5 min at 30° C., substrate hydrolysis rate was followed in a Tecan Infinite M200 96-well plate fluorescence reader (Tecan group Ltd, Switzerland) using 365 nm excitation and 450 nm emission wavelength with a cutoff at 435 nm for 20 min at 30° C. Wells without enzyme were used to monitor spontaneous substrate hydrolysis and protease contamination in the inhibitor preparation. A t-test was used for the statistical analysis of the observed inhibition in the presence of 500 nM rSimukunin and when p<0.05, it was considered as statistically significant.
All enzymes used were of human origin and of the highest available purity. […]

cathepsin G (human) [4] = target: T5, cathepsin G (human) (human, UniProt P08311 21-244); experiment: calculated by Cheng-Prusoff from the enzyme-inhibition IC50 and the substrate Km (250 uM general chymotrypsin substrate)
T5 construct: mature
T5 sequence (looked up): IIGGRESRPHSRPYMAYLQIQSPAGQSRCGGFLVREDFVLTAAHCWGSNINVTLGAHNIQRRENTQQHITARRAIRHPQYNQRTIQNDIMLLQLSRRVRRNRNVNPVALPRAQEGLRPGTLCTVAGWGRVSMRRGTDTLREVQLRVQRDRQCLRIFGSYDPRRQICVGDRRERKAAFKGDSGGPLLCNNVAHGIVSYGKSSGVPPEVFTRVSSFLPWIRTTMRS
Protocol: (§1) The Kₘ for the elastase substrate was 38.5±3.3 μM, and the estimated Kᵢ was ˜0.65 nM. For FXa the substrate Kₘ was 161.6±17.4 μM, and the estimated Kᵢ was ˜2.1 nM. For Cathepsin G the Kₘ was 188±20 μM, and the Kᵢ was 100 nM. A general chymotrypsin substrate was used to assess Cathepsin G activity; as this substrate is not optimized for Cathepsin G it is likely that our measurement of the Kᵢ underestimates the effect of rSimukunin. Further studies of the effect of rSimukunin on Cathepsin G will be performed.
(§2) Enzymes, at the concentrations given in Table 1, were incubated with the indicated concentration of rSimukunin for five minutes at 30° C., followed by addition of substrate (250 μM final concentration). The amount of enzyme used in the assays was the lowest possible to give a linear substrate hydrolysis rate in the assays (r2>0.95). Substrate hydrolysis was followed in a Tecan Infinite M200 96-well plate fluorescence reader (Tecan group Ltd, Switzerland) using 365 nm excitation and 450 nm emission wavelength with a cutoff at 435 nm for 20 min at 30° C. Wells without enzyme were used to monitor spontaneous substrate hydrolysis and protease contamination in the inhibitor preparation. All experiments were performed in triplicate (for each enzyme and each concentration of the inhibitor). […]

[5] = target: T6, elastase (human; for SPR purified from human sputum) (human, UniProt P08246 30-267); experiment: SPR (Biacore T100), rSimukunin immobilized on CM5, elastase as analyte, 1:1 Langmuir fit
T6 construct: mature
T6 sequence (looked up): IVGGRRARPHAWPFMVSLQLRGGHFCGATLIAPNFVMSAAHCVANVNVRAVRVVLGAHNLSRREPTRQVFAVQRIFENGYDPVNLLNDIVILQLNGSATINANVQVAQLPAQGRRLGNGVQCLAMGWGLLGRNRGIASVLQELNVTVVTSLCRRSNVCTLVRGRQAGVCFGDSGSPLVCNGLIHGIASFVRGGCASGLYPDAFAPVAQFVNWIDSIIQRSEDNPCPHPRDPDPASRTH
Protocol: (§3) Data were fitted using a […] binding model (Langmuir). RU: resonance units.
(§4) Surface plasmon resonance (SPR) assays. SPR experiments were conducted using a T100 instrument (Biacore Inc., Uppsala, Sweden) following the manufacturer's instructions. Sensor CM5, amine coupling reagents, and buffers were also purchased from Biacore Inc. (Piscataway, N.J., USA). IBS P (10 mM Hepes, pH 7.4, 150 mM NaCl, and 0.005% (v/v) P20 surfactant) was used as the running buffer for all SPR experiments, which were carried out as previously described (Albrecht et al., 1983, Hoppe Seylers Z Physiol Chem; 364:1697-1702). For analytes, FVIIa (recombinant) was purchased from American Diagnostica (Stamford, Conn.); FX, FXa (human, bovine, mouse), DEGR-FXa (human), des-Gla-FXa (human), FIXa, FXIa, FXIIIa, and thrombin were purchased from Haematologic Technologies, Inc. (Essex Junction, Vt.); elastase (purified from human sputum) was purchased from Molecular Innovations, Inc. (Novi, Mich.). All enzymes were of the highest available purity. For immobilization and kinetic analysis, rSimukunin (10 μg/ml) in acetate buffer pH 5.0 was immobilized over a CM5 sensor via amine coupling, resulting in a final immobilization of 475.3 RU. Kinetic experiments were carried out with a contact time of 180 seconds at a flow rate of 30 μl/minute at 25° C. rSimukunin-FXa complex dissociation was monitored for 1800 seconds, and the sensor surface was regenerated by a pulse of 30 seconds of 20 mM HCl at 30 μl/minute. In other experiments, other coagulation factors or enzymes were used as analytes. Blank flow cells were used to subtract the buffer effect on sensorgrams.

[6] = target: T6, elastase (human; for SPR purified from …); experiment: calculated by Cheng-Prusoff from the enzyme-inhibition IC50 and the substrate Km (250 uM substrate)
Protocol: as §1, §2

[7] = target: T7, human activated coagulation factor X (FXa) (human, UniProt P00742 41-179; P00742 235-488); experiment: as above
T7 construct: mature; also called Factor Xa; human FXa
Protocol: as §1, §2

[8] = target: T7, human activated coagulation factor X …; experiment: SPR (Biacore T100), rSimukunin immobilized on CM5, FXa as analyte, 1:1 Langmuir fit
Protocol: as §3, §4

[9] = target: trypsin (sequencing grade, Roche) (human); experiment: cell-based or functional assay
skin β-tryptase (human) = skin β-tryptase (human) (human, UniProt Q15661 31-275); experiment: cell-based or functional assay
[10] = target: T6, elastase (human; for SPR purified from …); experiment: cell-based or functional assay
cathepsin G (human) [11] = target: T5, cathepsin G (human); experiment: cell-based or functional assay
plasmin (human) = plasmin (human) (human, UniProt P00747 97-810); experiment: cell-based or functional assay
[12] = target: T7, human activated coagulation factor X …; experiment: cell-based or functional assay
[13] = target: coagulation Factor XIa (FXIa) (human, UniProt P03951 19-625); experiment: cell-based or functional assay
kallikrein (human) = kallikrein (human) (human, UniProt P03952 20-638, limits assumed); experiment: cell-based or functional assay
kallikrein (human), sequence (P03952 20-638 limits assumed): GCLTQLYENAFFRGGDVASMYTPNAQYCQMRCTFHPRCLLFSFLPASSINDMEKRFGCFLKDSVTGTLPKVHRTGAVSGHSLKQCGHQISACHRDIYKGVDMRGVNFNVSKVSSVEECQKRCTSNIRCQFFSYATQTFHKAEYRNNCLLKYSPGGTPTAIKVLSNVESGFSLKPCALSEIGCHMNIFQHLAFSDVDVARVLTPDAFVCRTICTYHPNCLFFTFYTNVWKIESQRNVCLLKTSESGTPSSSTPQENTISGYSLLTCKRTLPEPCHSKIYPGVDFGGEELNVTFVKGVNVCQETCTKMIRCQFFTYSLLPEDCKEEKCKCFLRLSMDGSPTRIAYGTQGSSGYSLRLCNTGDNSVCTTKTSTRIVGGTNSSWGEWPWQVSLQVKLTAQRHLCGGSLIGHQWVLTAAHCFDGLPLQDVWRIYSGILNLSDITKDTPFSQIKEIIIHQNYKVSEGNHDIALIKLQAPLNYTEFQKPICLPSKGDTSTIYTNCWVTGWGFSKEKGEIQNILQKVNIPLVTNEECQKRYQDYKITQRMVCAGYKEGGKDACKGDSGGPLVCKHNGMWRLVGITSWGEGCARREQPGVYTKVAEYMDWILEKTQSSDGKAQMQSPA

T7 sequence (P00742 41-179 limits assumed, chain 1 of 2): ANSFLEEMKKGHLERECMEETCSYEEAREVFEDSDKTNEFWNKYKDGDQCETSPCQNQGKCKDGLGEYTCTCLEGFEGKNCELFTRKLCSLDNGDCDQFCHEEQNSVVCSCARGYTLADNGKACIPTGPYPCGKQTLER
T7 sequence (P00742 235-488 limits assumed, chain 2 of 2): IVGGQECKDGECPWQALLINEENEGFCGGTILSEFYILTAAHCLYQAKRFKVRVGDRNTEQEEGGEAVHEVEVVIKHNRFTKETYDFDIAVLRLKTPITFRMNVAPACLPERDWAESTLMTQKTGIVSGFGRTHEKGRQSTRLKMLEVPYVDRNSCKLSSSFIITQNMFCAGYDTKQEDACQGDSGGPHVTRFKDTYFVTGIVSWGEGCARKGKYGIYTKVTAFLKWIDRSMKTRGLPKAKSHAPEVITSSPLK
T2 sequence (P00742 41-488 limits assumed): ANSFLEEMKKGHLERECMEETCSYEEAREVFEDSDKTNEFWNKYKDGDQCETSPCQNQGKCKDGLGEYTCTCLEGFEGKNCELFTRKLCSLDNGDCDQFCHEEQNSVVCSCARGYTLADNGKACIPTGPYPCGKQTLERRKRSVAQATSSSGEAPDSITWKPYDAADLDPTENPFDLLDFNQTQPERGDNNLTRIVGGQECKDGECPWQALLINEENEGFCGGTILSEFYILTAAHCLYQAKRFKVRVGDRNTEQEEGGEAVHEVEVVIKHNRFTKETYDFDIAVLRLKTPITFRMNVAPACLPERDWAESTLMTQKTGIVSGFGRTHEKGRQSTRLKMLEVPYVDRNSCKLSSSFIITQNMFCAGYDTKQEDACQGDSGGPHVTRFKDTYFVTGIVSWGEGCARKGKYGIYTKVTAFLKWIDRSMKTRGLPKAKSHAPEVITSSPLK
skin β-tryptase (human), sequence (Q15661 31-275): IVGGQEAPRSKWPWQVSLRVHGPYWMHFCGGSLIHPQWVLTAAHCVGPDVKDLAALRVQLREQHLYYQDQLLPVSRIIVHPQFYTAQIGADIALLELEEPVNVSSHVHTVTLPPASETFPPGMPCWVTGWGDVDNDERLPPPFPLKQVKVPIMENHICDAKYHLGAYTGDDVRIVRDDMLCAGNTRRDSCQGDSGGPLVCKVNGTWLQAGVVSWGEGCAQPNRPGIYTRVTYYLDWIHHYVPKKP
plasmin (human), sequence (P00747 97-810): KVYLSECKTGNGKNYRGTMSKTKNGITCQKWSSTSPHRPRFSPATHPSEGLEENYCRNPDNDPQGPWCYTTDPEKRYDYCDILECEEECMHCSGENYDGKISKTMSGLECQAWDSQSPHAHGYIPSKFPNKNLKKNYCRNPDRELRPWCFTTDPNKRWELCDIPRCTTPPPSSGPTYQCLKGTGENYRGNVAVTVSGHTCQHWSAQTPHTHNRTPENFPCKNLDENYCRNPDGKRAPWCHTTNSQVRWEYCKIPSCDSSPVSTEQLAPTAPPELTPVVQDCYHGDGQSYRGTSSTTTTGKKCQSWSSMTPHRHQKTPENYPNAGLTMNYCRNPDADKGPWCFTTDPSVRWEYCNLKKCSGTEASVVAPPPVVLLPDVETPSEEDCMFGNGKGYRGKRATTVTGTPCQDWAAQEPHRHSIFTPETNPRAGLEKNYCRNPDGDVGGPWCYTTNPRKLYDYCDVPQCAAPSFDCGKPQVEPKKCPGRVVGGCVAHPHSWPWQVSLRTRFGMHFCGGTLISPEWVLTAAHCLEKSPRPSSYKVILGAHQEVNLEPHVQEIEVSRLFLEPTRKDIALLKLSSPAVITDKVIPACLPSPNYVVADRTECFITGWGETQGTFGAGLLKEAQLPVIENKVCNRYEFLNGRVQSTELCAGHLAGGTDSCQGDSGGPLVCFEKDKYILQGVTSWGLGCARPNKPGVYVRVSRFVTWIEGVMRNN
trypsin (sequencing grade, Roche) (human), sequence (P00760 24-246): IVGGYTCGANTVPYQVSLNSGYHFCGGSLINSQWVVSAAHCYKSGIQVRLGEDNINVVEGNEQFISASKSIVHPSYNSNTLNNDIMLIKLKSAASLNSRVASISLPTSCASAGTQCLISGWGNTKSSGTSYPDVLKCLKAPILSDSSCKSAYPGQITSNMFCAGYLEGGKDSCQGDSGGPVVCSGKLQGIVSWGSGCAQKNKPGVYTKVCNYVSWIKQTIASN
coagulation Factor XIa (FXIa), sequence (P03951 19-625 limits assumed): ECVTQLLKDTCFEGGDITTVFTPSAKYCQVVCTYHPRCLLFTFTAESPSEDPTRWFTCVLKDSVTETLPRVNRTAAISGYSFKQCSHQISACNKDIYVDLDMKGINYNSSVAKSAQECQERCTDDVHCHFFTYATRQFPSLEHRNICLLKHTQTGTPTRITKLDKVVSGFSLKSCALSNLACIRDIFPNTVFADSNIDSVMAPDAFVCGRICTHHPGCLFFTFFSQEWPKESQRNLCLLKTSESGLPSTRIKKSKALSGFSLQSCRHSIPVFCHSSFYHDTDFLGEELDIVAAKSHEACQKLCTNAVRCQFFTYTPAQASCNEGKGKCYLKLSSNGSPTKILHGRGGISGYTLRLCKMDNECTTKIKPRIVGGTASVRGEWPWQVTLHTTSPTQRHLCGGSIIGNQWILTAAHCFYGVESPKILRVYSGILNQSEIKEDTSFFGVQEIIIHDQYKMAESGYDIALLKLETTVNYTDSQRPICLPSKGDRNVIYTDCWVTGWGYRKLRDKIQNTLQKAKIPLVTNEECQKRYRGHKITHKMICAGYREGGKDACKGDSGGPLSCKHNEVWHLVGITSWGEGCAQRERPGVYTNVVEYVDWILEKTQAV

B1: recombinant Simukunin (rSV-66), Simulium vittatum SV-66 without signal peptide, His-tagged, expressed in E. coli (other)
chain: QENVCNLPVDEGVCRALFKRFYYEPATDSCKEFYYGGCEGNGNRFKSKKECILKCQKNKQLIKTRKRKPKKTTKPPIPIISLD
notes: also called rSimukunin; WT rSimukunin; not shown: His tag(s) from vector pET-30 Ek/LIC ('C-terminal double His tags')
- binding result [1]: no binding (tested: 200 nM)
- binding result [2]: no binding (tested: 200 nM)
- binding result [3]: no binding (tested: 200 nM)
- binding result (chymase (human)): binds
- Ki (cathepsin G (human) [4]): 100 nM
- Kd [5]: 0.4 nM
- koff [5]: 0.0173 s⁻¹
- kon [5]: 4.3e+07 M⁻¹ s⁻¹
- Ki [6]: ~0.65 nM
- Ki [7]: ~2.1 nM
- Kd [8]: 3.07 nM
- koff [8]: 0.000303 s⁻¹
- kon [8]: 98700 M⁻¹ s⁻¹
- Ratio of IC50 to enzyme concentration [9]: 3790
- Ratio of IC50 to enzyme concentration (skin β-tryptase (human)): 6680
- Ratio of IC50 to enzyme concentration [10]: 27.2
- Ratio of IC50 to enzyme concentration (cathepsin G (human) [11]): 32.5
- Ratio of IC50 to enzyme concentration (plasmin (human)): 161
- Ratio of IC50 to enzyme concentration [12]: 52
- Ratio of IC50 to enzyme concentration [13]: 945
- Ratio of IC50 to enzyme concentration (kallikrein (human)): 1150
